{"source": "patent US20230382948A1", "about": "“DELIVERY OF ENDOTHELIAL CELL-LADEN MICROGEL ELICITS ANGIOGENESIS IN SELF-ASSEMBLING ULTRASHORT PEPTIDE HYDROGELS” (KING ABDULLAH UNIVERSITY OF SCIENCE AND TECHNOLOGY, priority 2020, published 2023)", "type_in_all_cases": "physicochemical", "key": {"SEM of microgels": {"experiment": "SEM of microgels", "details": "for Microgel surface fiber bundle thickness: SEM", "procedure": "The surface topography of the microgels was visualized using a FEI Magellan XHR Scanning Electron Microscope with an accelerating voltage of 3 kV. The SEM samples were prepared by dehydrating the peptide microgels in a gradually increasing ethanol concentration. The dehydrated microgels were then dried in a Leica EM CPD300. The dried peptides were sputter coated with 5 nm […] before imaging."}, "[1]": {"experiment": "Rheological characterization of SUP bulk hydrogels", "procedure": "The mechanical stiffness of the peptide hydrogels was analyzed using a TA Ares-G2 Rheometer equipped with parallel-plate geometries of 8 mm diameter at room temperature. The sample gap between the upper and the lower geometries was set at 1.8 mm. The hydrogels were prepared from 135 μL of peptide solution that was mixed with 15 μL of 10×PBS in an 8 mm i.d. poly(methyl methacrylate) (PMMA) casting ring and left for 1 day before measurement. The rings were kept inside Petri dishes at room temperature with water surrounding them and tightly sealed to avoid dehydration. To control the accuracy of the measurements, six replicates for each peptide hydrogel were prepared. The stiffness was analyzed through three successive tests, which were time sweep, frequency sweep, and amplitude sweep. Time sweep was first performed for 5 min with an angular frequency and a strain of 1 rad/s and 0.1%, respectively. A frequency sweep was subsequently performed on the sample for a range of angular frequency of 0.1-100 rad/s with the same strain of 0.1%. The tests were completed with the amplitude sweep by applying a gradual increase of strain […] at 1 rad/s angular frequency."}, "[2]": {"experiment": "Peptide gelation study (vial inversion method)", "details": "for Time to form hydrogel: 4 mg/mL, room temperature, in the presence of PBS", "procedure": "The preweighed (as per the required final concentration) peptide powder was dissolved in 0.9 mL of Milli-Q® water in a glass vial. The solution was vortexed for 5-10 s to obtain a clear and homogeneous solution. To this peptide solution, 0.1 mL of PBS buffer (10×, w/o Ca^2+ and Mg^2+) was added. To ensure a homogeneous distribution of buffer in the solution, the glass vial was further vortexed for 2-3 s. The glass vial was kept undisturbed on the bench, and hydrogel formation was observed using the vial inversion method, as shown in FIG. 9. The pH of the solutions of IVFK (SEQ ID NO. 1) and IVZK (SEQ ID NO. 2) was 5.57 and 5.48 at a 5 mg/mL concentration, respectively. After the addition of PBS, the pH changed to 7.7 and 7.6 for IVFK (SEQ ID NO. 1) and IVZK (SEQ ID NO. 2), respectively. The pH of the Milli-Q® water and phosphate buffer used was 6.7 and 7.4, respectively."}, "[3]": {"experiment": "Microgel stability under cell culture procedures", "details": "for Microgel size and shape stability: autoclaving, UV irradiation, trypsinization, rocking, 37 and 22° C.", "procedure": "A 400 μL amount of microgels was diluted in 6 mL of DMEM, and aliquots of 1 mL were seeded in five 35 mm plastic Petri dishes and one 40 mm glass Petri dish. Each dish containing microgels was treated as follows: (1) Autoclaving at 121° C. for 20 min using the glass dish, (2) UV irradiation for 30 min, and (3) 0.125% trypsin-EDTA at 37° C. for 5 min. In addition, the remaining dishes containing microgels were treated for 16-18 days as follows: (4) 37° C., 95% humidity, and 5% CO2, (5) 37° C., 95% humidity, and 5% CO2 under rocker conditions at 30 rpm, and (6) 22° C. on a shelf. Microgel imaging was done before treatment and follow up every other day. FIG. 31 summarizes the experimental design.\n(§1) Microgel imaging was done at each condition and time point using a CLSM Zeiss® 710 or 880 by tile scanning with 15% overlapping and online stitching to capture as many microgels as possible from the dish. The Feret diameter and roundness of each microgel was calculated using ImageJ software by manually drawing up to 59 microgel contours per condition. All statistical data analysis and microgel descriptor plotting were conducted in Origin software. To assess the effect of the treatments on the microgel diameter and roundness, a Kruskal—Wallis test with Posthoc test pairwise Mann—Whitney U tests was applied."}, "[4]": {"experiment": "Microgel fabrication by flow-focusing microfluidics, microgel imaging (diameter, roundness)", "details": "for Microgel average diameter: SUP solution 1.5 wt %, oil with Span 80 (2%) and sodium chloride", "procedure": "Since the microgels are intended to be cell carriers, the fabrication materials were sterilized before use when possible and handled aseptically inside a biosafety cabinet (BSC) to reduce contamination risk. Milli-Q® water and hexadecane were sterilized by autoclaving at 121° C. for 20 min. Light mineral oil was sterilized by dry heating at 160° C. for 1 h. Peptide powder and sodium chloride were sterilized by UV irradiation (GE® germicidal lamp 30 W) for 30 min inside BSC. Once sterile, the peptide powder was dissolved to 27.1 mM (15 mg/mL) in sterile Milli-Q® water by vortexing for 5 min and incubated at room temperature (22° C.) for 1 h (preassembly). Span 80 was dissolved to 2% (v/v) into light mineral oil and hexadecane, independently. Sodium chloride was added to the light mineral oil+Span 80 mix and shaked to disperse the sodium chloride crystals. The peptide solution was loaded in a 1 mL syringe, while the light mineral oil with Span 80 2% (v/v) and sodium chloride 3 mg/mL were loaded in a 3 mL syringe. Both syringes were connected with the microfluidic system, and both solutions were brought to the droplet generator point by pressing the syringes manually. Then, both syringes were inserted into the pumps, and the flow rate was set at 10 μL/min for continuous phase (light mineral oil with Span 80 and sodium chloride) and 1 μL/min for dispersed phase (peptide solution). Droplet generation was monitored by on-site bright-field microscopy, and once it was stable and continuous, the droplets were collected in a tube containing light mineral oil with Span 80 2% (v/v). To confirm peptide droplet gelation, FluoSpheres® or QD were sometimes incorporated into the peptide solution during the preassembly incubation. Microgels were isolated from oil adding the same volume of hexadecane containing Span 80 (2% v/v) and centrifuged at 10 g for 5 min, and the oil layer was discarded. Microgels were washed with hexadecane plus Span 80 (2% v/v) two more times, discarding the hexadecane layer. A volume of DPBS containing Tween 20 (10% v/v) was gently added on the microgels through the collection tube walls and removed after 5 min. DPBS—Tween 20 washing was repeated 2 more times, decreasing the Tween 20 content to 1% v/v and 0.1% v/v sequentially. Finally, 250μL of DPBS was added on the microgels to keep them soaked, and they were kept on a shelf (22° C.) until further use. The microgel shape and size were checked by confocal laser scanning microscopy (CLSM).\nas §1"}, "[5]": {"details": "after extraction to the aqueous phase (PBS)"}, "[6]": {"details": "22 C. at day 0, 2, 4, 10, 12, 14, 16, 18, the 5th table"}, "[7]": {"details": "22 C. at day 0, 2, 4, 10, 12, 14, 16, the 4th table"}, "[8]": {"details": "22 C., Autoclaving, UV and Trypsin, the 4th table"}, "[9]": {"details": "22 C., Autoclaving, UV and Trypsin, the 5th table"}, "[10]": {"details": "37 C. at day 0, 2, 4, 10, 12, 14, 16, 18, the 5th table"}, "[11]": {"details": "37 C. at day 0, 2, 4, 10, 12, 14, 16, the 4th table"}, "[12]": {"details": "37 C. at day 0, 2, 4, 16, 12, 14, 16, 18, the 5th table"}, "[13]": {"details": "37 C. with rocking at day 0, 2, 4, 10, 12, 14, 16, 18, the 5th table"}, "[14]": {"details": "37 C. with rocking at day 0, 2, 4, 10, 12, 14, 16, the 4th table"}, "[15]": {"details": "37 C. with rocking at day 0, 2, 4, 10, 12, 14, 36, 18, the 5th table"}}}
{"substance": "Ac-Ile-Val-Cha-Lys-NH2 (IVXK; HELM PEPTIDE1{[ac].I.V.[Cha].K.[am]}$$$$V2.0; SMILES CC[C@H](C)[C@H](NC(C)=O)C(=O)N[C@H](C(=O)N[C@@H](CC1CCCCC1)C(=O)N[C@@H](CCCCN)C(N)=O)C(C)C) [IVZK, self-assembling ultrashort tetrapeptide, Z = cyclohexylalanine, forms hydrogels and microgels]", "values": [{"measurement": "Microgel stability through SEM sample preparation", "setting": "SEM of microgels; 1.5 wt %, critical point drier", "value": "stable enough to maintain their 3D spherical structure"}, {"measurement": "Microgel surface fiber bundle thickness", "setting": "SEM of microgels", "value": "around 20 nm"}, {"measurement": "Mechanical stiffness of hydrogel, comparison", "setting": "[1]; IVZK versus IVFK hydrogels, FIG. 15", "value": "higher stiffness"}, {"measurement": "Critical gelation concentration in bulky hydrogels", "setting": "[2]", "value": 0.3, "unit": "wt %"}, {"measurement": "Time to form hydrogel", "setting": "[2]", "value": 10, "unit": "min"}, {"measurement": "Microgel size and shape stability", "setting": "[3]", "value": "maintain their size and shape"}, {"measurement": "Microgel swelling on extraction from the oil phase to the aqueous phase", "setting": "[4]", "value": "not"}, {"measurement": "Microgel average diameter", "setting": "[4]", "value": 350, "unit": "μm"}, {"measurement": "Microgel roundness, average", "setting": "[4]; [5]", "value": 0.88}, {"measurement": "Microgel roundness, average", "setting": "[4]; in oil", "value": 0.98}]}
{"substance": "Ac-Ile-Val-Phe-Lys-NH2 (Ac-IVFK-NH2) [self-assembling ultrashort tetrapeptide, forms hydrogels and microgels]", "values": [{"measurement": "Microgel surface fiber bundle thickness", "setting": "SEM of microgels", "value": "around 20 nm"}, {"measurement": "Linear viscoelastic (LVE) region of hydrogel, comparison", "setting": "[1]; amplitude sweep, IVFK versus IVZK, FIGS. 18 and 19", "value": "wider"}, {"measurement": "Critical gelation concentration in bulky hydrogels", "setting": "[2]", "value": 0.4, "unit": "wt %"}, {"measurement": "Time to form hydrogel", "setting": "[2]", "value": 10, "unit": "min"}, {"measurement": "X2 (Kruskal-Wallis), microgel diameter", "setting": "[3]; [6]", "value": 10.76}, {"measurement": "X2 (Kruskal-Wallis), microgel roundness", "setting": "[3]; [6]", "value": 7.72}, {"measurement": "p (Kruskal-Wallis), microgel diameter", "setting": "[3]; [6]", "value": ">0.05"}, {"measurement": "p (Kruskal-Wallis), microgel roundness", "setting": "[3]; [6]", "value": ">0.05"}, {"measurement": "X2 (Kruskal-Wallis), microgel diameter", "setting": "[3]; [7]", "value": 1.69}, {"measurement": "X2 (Kruskal-Wallis), microgel roundness", "setting": "[3]; [7]", "value": 1.65}, {"measurement": "p (Kruskal-Wallis), microgel diameter", "setting": "[3]; [7]", "value": ">0.05"}, {"measurement": "p (Kruskal-Wallis), microgel roundness", "setting": "[3]; [7]", "value": ">0.05"}, {"measurement": "X2 (Kruskal-Wallis), microgel diameter", "setting": "[3]; [8]", "value": 3.99}, {"measurement": "X2 (Kruskal-Wallis), microgel roundness", "setting": "[3]; [8]", "value": 6.48}, {"measurement": "p (Kruskal-Wallis), microgel diameter", "setting": "[3]; [8]", "value": ">0.05"}, {"measurement": "p (Kruskal-Wallis), microgel roundness", "setting": "[3]; [8]", "value": ">0.05"}, {"measurement": "X2 (Kruskal-Wallis), microgel diameter", "setting": "[3]; [9]", "value": 5.61}, {"measurement": "X2 (Kruskal-Wallis), microgel roundness", "setting": "[3]; [9]", "value": 1.82}, {"measurement": "p (Kruskal-Wallis), microgel diameter", "setting": "[3]; [9]", "value": ">0.05"}, {"measurement": "p (Kruskal-Wallis), microgel roundness", "setting": "[3]; [9]", "value": ">0.05"}, {"measurement": "X2 (Kruskal-Wallis), microgel roundness", "setting": "[3]; [10]", "value": 12.93}, {"measurement": "p (Kruskal-Wallis), microgel roundness", "setting": "[3]; [10]", "value": ">0.05"}, {"measurement": "X2 (Kruskal-Wallis), microgel diameter", "setting": "[3]; [11]", "value": 1.28}, {"measurement": "X2 (Kruskal-Wallis), microgel roundness", "setting": "[3]; [11]", "value": 7.52}, {"measurement": "p (Kruskal-Wallis), microgel diameter", "setting": "[3]; [11]", "value": ">0.05"}, {"measurement": "p (Kruskal-Wallis), microgel roundness", "setting": "[3]; [11]", "value": ">0.05"}, {"measurement": "X2 (Kruskal-Wallis), microgel diameter", "setting": "[3]; [12]", "value": 13.16}, {"measurement": "p (Kruskal-Wallis), microgel diameter", "setting": "[3]; [12]", "value": ">0.05"}, {"measurement": "p (Kruskal-Wallis), microgel diameter", "setting": "[3]; 37 C. with mocking at day 0, 2, 4, 10, 12, 14, 16, the 4th table", "value": ">0.05"}, {"measurement": "X2 (Kruskal-Wallis), microgel diameter", "setting": "[3]; [13]", "value": 10.89}, {"measurement": "p (Kruskal-Wallis), microgel diameter", "setting": "[3]; [13]", "value": ">0.05"}, {"measurement": "X2 (Kruskal-Wallis), microgel diameter", "setting": "[3]; [14]", "value": 5.81}, {"measurement": "X2 (Kruskal-Wallis), microgel roundness", "setting": "[3]; [14]", "value": 3.62}, {"measurement": "p (Kruskal-Wallis), microgel roundness", "setting": "[3]; [14]", "value": ">0.05"}, {"measurement": "X2 (Kruskal-Wallis), microgel roundness", "setting": "[3]; [15]", "value": 4.28}, {"measurement": "p (Kruskal-Wallis), microgel roundness", "setting": "[3]; [15]", "value": ">0.05"}, {"measurement": "Microgel size and shape stability", "setting": "[3]", "value": "maintain their size and shape"}, {"measurement": "Microgel swelling on extraction from the oil phase to the aqueous phase", "setting": "[4]", "value": 50, "unit": "μm"}, {"measurement": "Minimum concentration with many intact microgels after isolation in the aqueous phase", "setting": "[4]", "value": 0.8, "unit": "wt %"}, {"measurement": "Microgel average diameter", "setting": "[4]", "value": 300, "unit": "μm"}, {"measurement": "Microgel roundness, average", "setting": "[4]; [5]", "value": 0.88}, {"measurement": "Microgel roundness, average", "setting": "[4]; in oil", "value": 0.98}]}
